Experimental data: patent US20220048967A1 (published 2022)
Numbered stars: 1 amine (or outer) side, 2 acyl side, 3 side chain; on linkers, the order of the positions; unused ones are H or OH. Square brackets hold non-standard residues; d marks the D form. Side chains are listed from the residue outwards. Ends that are not written are not given here. * marks the point of attachment. C20 diacid = O=C(O)CCCCCCCCCCCCCCCCCCC(=O)*; γGlu = O=C(O)[C@H](CCC(=O)[*:2])N[*:1]; AEEA = NCCOCCOCC(=O)O; Aib = CC(C)(N)C(=O)O

T1: human GIP receptor (human, UniProt P48546 22-466)
T1 sequence (looked up): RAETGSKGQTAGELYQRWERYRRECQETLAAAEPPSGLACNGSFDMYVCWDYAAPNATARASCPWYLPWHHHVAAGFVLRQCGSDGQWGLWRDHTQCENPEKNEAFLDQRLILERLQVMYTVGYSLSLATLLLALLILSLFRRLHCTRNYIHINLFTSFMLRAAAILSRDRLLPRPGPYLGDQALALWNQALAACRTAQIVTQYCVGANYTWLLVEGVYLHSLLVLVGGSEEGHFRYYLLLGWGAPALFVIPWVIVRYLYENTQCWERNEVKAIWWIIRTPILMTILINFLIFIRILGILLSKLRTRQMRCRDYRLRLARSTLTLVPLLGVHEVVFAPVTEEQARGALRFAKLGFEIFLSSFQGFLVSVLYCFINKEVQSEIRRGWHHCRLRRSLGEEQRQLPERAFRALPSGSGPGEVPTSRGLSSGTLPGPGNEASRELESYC

B1: Example 40 (peptide)
peptide: Y[Aib]EGTFTSDYSILLDKIAQ[Aib]AFIEYLIEGGK([AEEA-AEEA-γGlu-C20 diacid])SSGAPPPS-NH2
modifications: N-terminus assumed
SMILES: CC[C@H](C)[C@H](NC(=O)[C@H](CCCCN)NC(=O)[C@H](CC(=O)O)NC(=O)[C@H](CC(C)C)NC(=O)[C@H](CC(C)C)NC(=O)[C@@H](NC(=O)[C@H](CO)NC(=O)[C@H](Cc1ccc(O)cc1)NC(=O)[C@H](CC(=O)O)NC(=O)[C@H](CO)NC(=O)[C@@H](NC(=O)[C@H](Cc1ccccc1)NC(=O)[C@@H](NC(=O)CNC(=O)[C@H](CCC(=O)O)NC(=O)C(C)(C)NC(=O)[C@@H](N)Cc1ccc(O)cc1)[C@@H](C)O)[C@@H](C)O)[C@@H](C)CC)C(=O)N[C@@H](C)C(=O)N[C@@H](CCC(N)=O)C(=O)NC(C)(C)C(=O)N[C@@H](C)C(=O)N[C@@H](Cc1ccccc1)C(=O)N[C@H](C(=O)N[C@@H](CCC(=O)O)C(=O)N[C@@H](Cc1ccc(O)cc1)C(=O)N[C@@H](CC(C)C)C(=O)N[C@H](C(=O)N[C@@H](CCC(=O)O)C(=O)NCC(=O)NCC(=O)N[C@@H](CCCCNC(=O)COCCOCCNC(=O)COCCOCCNC(=O)CC[C@H](NC(=O)CCCCCCCCCCCCCCCCCCC(=O)O)C(=O)O)C(=O)N[C@@H](CO)C(=O)N[C@@H](CO)C(=O)NCC(=O)N[C@@H](C)C(=O)N1CCC[C@H]1C(=O)N1CCC[C@H]1C(=O)N1CCC[C@H]1C(=O)N[C@@H](CO)C(N)=O)[C@@H](C)CC)[C@@H](C)CC
B2: Example 42 (peptide)
peptide: Y[Aib]EGTFTSDYSILLDKIAQ[Aib]AFIEYLIEGGPSK([AEEA-AEEA-γGlu-C20 diacid])GAPPPS-NH2
modifications: N-terminus assumed
SMILES: CC[C@H](C)[C@H](NC(=O)[C@H](CCCCN)NC(=O)[C@H](CC(=O)O)NC(=O)[C@H](CC(C)C)NC(=O)[C@H](CC(C)C)NC(=O)[C@@H](NC(=O)[C@H](CO)NC(=O)[C@H](Cc1ccc(O)cc1)NC(=O)[C@H](CC(=O)O)NC(=O)[C@H](CO)NC(=O)[C@@H](NC(=O)[C@H](Cc1ccccc1)NC(=O)[C@@H](NC(=O)CNC(=O)[C@H](CCC(=O)O)NC(=O)C(C)(C)NC(=O)[C@@H](N)Cc1ccc(O)cc1)[C@@H](C)O)[C@@H](C)O)[C@@H](C)CC)C(=O)N[C@@H](C)C(=O)N[C@@H](CCC(N)=O)C(=O)NC(C)(C)C(=O)N[C@@H](C)C(=O)N[C@@H](Cc1ccccc1)C(=O)N[C@H](C(=O)N[C@@H](CCC(=O)O)C(=O)N[C@@H](Cc1ccc(O)cc1)C(=O)N[C@@H](CC(C)C)C(=O)N[C@H](C(=O)N[C@@H](CCC(=O)O)C(=O)NCC(=O)NCC(=O)N1CCC[C@H]1C(=O)N[C@@H](CO)C(=O)N[C@@H](CCCCNC(=O)COCCOCCNC(=O)COCCOCCNC(=O)CC[C@H](NC(=O)CCCCCCCCCCCCCCCCCCC(=O)O)C(=O)O)C(=O)NCC(=O)N[C@@H](C)C(=O)N1CCC[C@H]1C(=O)N1CCC[C@H]1C(=O)N1CCC[C@H]1C(=O)N[C@@H](CO)C(N)=O)[C@@H](C)CC)[C@@H](C)CC
B3: Example 39 (peptide)
peptide: Y[Aib]EGTFTSDYSILLDKIAQ[Aib]AFIEYLIEGK([AEEA-AEEA-γGlu-C20 diacid])PSSGAPPPS-NH2
modifications: N-terminus assumed
SMILES: CC[C@H](C)[C@H](NC(=O)[C@H](CCCCN)NC(=O)[C@H](CC(=O)O)NC(=O)[C@H](CC(C)C)NC(=O)[C@H](CC(C)C)NC(=O)[C@@H](NC(=O)[C@H](CO)NC(=O)[C@H](Cc1ccc(O)cc1)NC(=O)[C@H](CC(=O)O)NC(=O)[C@H](CO)NC(=O)[C@@H](NC(=O)[C@H](Cc1ccccc1)NC(=O)[C@@H](NC(=O)CNC(=O)[C@H](CCC(=O)O)NC(=O)C(C)(C)NC(=O)[C@@H](N)Cc1ccc(O)cc1)[C@@H](C)O)[C@@H](C)O)[C@@H](C)CC)C(=O)N[C@@H](C)C(=O)N[C@@H](CCC(N)=O)C(=O)NC(C)(C)C(=O)N[C@@H](C)C(=O)N[C@@H](Cc1ccccc1)C(=O)N[C@H](C(=O)N[C@@H](CCC(=O)O)C(=O)N[C@@H](Cc1ccc(O)cc1)C(=O)N[C@@H](CC(C)C)C(=O)N[C@H](C(=O)N[C@@H](CCC(=O)O)C(=O)NCC(=O)N[C@@H](CCCCNC(=O)COCCOCCNC(=O)COCCOCCNC(=O)CC[C@H](NC(=O)CCCCCCCCCCCCCCCCCCC(=O)O)C(=O)O)C(=O)N1CCC[C@H]1C(=O)N[C@@H](CO)C(=O)N[C@@H](CO)C(=O)NCC(=O)N[C@@H](C)C(=O)N1CCC[C@H]1C(=O)N1CCC[C@H]1C(=O)N1CCC[C@H]1C(=O)N[C@@H](CO)C(N)=O)[C@@H](C)CC)[C@@H](C)CC
B4: Example 41 (peptide)
peptide: Y[Aib]EGTFTSDYSILLDKIAQ[Aib]AFIEYLIEGGPK([AEEA-AEEA-γGlu-C20 diacid])SGAPPPS-NH2
modifications: N-terminus assumed
SMILES: CC[C@H](C)[C@H](NC(=O)[C@H](CCCCN)NC(=O)[C@H](CC(=O)O)NC(=O)[C@H](CC(C)C)NC(=O)[C@H](CC(C)C)NC(=O)[C@@H](NC(=O)[C@H](CO)NC(=O)[C@H](Cc1ccc(O)cc1)NC(=O)[C@H](CC(=O)O)NC(=O)[C@H](CO)NC(=O)[C@@H](NC(=O)[C@H](Cc1ccccc1)NC(=O)[C@@H](NC(=O)CNC(=O)[C@H](CCC(=O)O)NC(=O)C(C)(C)NC(=O)[C@@H](N)Cc1ccc(O)cc1)[C@@H](C)O)[C@@H](C)O)[C@@H](C)CC)C(=O)N[C@@H](C)C(=O)N[C@@H](CCC(N)=O)C(=O)NC(C)(C)C(=O)N[C@@H](C)C(=O)N[C@@H](Cc1ccccc1)C(=O)N[C@H](C(=O)N[C@@H](CCC(=O)O)C(=O)N[C@@H](Cc1ccc(O)cc1)C(=O)N[C@@H](CC(C)C)C(=O)N[C@H](C(=O)N[C@@H](CCC(=O)O)C(=O)NCC(=O)NCC(=O)N1CCC[C@H]1C(=O)N[C@@H](CCCCNC(=O)COCCOCCNC(=O)COCCOCCNC(=O)CC[C@H](NC(=O)CCCCCCCCCCCCCCCCCCC(=O)O)C(=O)O)C(=O)N[C@@H](CO)C(=O)NCC(=O)N[C@@H](C)C(=O)N1CCC[C@H]1C(=O)N1CCC[C@H]1C(=O)N1CCC[C@H]1C(=O)N[C@@H](CO)C(N)=O)[C@@H](C)CC)[C@@H](C)CC

Molecular target: human GLP-1 receptor (human, UniProt P43220 24-463)
Assay: cell-based or functional assay

| Binder | hGLP1R cAMP EC50 ratio | hGLP1R cAMP Rel EC50 [nM] |
| --- | --- | --- |
| B1 | 0.0801 | 0.746 |
| B2 | 0.0471 | 1.45 |
| B3 | 0.0323 | 1.92 |
| B4 | 0.0637 | 0.96 |

Molecular target: T1, human GIP receptor
Assay: cell-based or functional assay

| Binder | hGIPR cAMP EC50 ratio | hGIPR cAMP Rel EC50 [nM] |
| --- | --- | --- |
| B1 | 1.06 | 0.136 |
| B2 | 0.897 | 0.161 |
| B3 | 1.07 | 0.133 |
| B4 | 0.637 | 0.229 |
